Measurements published in the Immune Epitope Database (IEDB).

Columns and labels:
HLA-B*58:01 = assay: IEDB peptide-MHC binding, purified MHC/competitive/radioactivity; filed as Kd, often an IC50 or EC50 that approximates it; ≥ and ≤ were set here for values at or beyond the usual limits of such assays; conditions: source organism: Dengue virus 1 Brazil/97-11/1997
HLA-A*03:01 = assay: IEDB peptide-MHC binding, purified MHC/competitive/fluorescence; filed as Kd, often an IC50 or EC50 that approximates it; ≥ and ≤ were set here for values at or beyond the usual limits of such assays; conditions: source organism: Entamoeba histolytica
HLA-A*68:02 = assay: as above; conditions: source organism: Entamoeba histolytica
HLA-A*02:01 = assay: as above; conditions: source organism: Entamoeba histolytica
HLA-A*29:02 = assay: as above; conditions: source organism: Entamoeba histolytica
HLA-B*57:01 = assay: as above; conditions: source organism: Entamoeba histolytica
HLA-A*02:12 = assay: as above; conditions: source organism: Entamoeba histolytica
HLA-B*39:01 = assay: as above; conditions: source organism: Entamoeba histolytica
HLA-B*15:01 = assay: as above; conditions: source organism: Entamoeba histolytica
HLA-B*46:01 = assay: as above; conditions: source organism: Entamoeba histolytica
HLA-A*02:03 = assay: as above; conditions: source organism: Entamoeba histolytica
HLA-A*02:16 = assay: as above; conditions: source organism: Entamoeba histolytica
HLA-A*26:01 = assay: as above; conditions: source organism: Entamoeba histolytica
HLA-A*02:19 = assay: as above; conditions: source organism: Entamoeba histolytica
HLA-A*69:01 = assay: as above; conditions: source organism: Entamoeba histolytica
HLA-A*02:11 = assay: as above; conditions: source organism: Entamoeba histolytica
HLA-B*27:03 = assay: as above; conditions: source organism: Entamoeba histolytica
HLA-C*12:03 = assay: IEDB peptide-MHC binding, purified MHC/direct/fluorescence; filed as Kd, often an IC50 or EC50 that approximates it; ≥ and ≤ were set here for values at or beyond the usual limits of such assays; conditions: source organism: Entamoeba histolytica

Sequence	Kd (HLA-B*58:01)	Kd (HLA-A*03:01)	Kd (HLA-A*68:02)	Kd (HLA-A*02:01)	Kd (HLA-A*29:02)	Kd (HLA-B*57:01)	Kd (HLA-A*02:12)	Kd (HLA-B*39:01)	Kd (HLA-B*15:01)	Kd (HLA-B*46:01)	Kd (HLA-A*02:03)	Kd (HLA-A*02:16)	Kd (HLA-A*26:01)	Kd (HLA-A*02:19)	Kd (HLA-A*69:01)	Kd (HLA-A*02:11)	Kd (HLA-B*27:03)	Kd (HLA-C*12:03)
PSVVETLEQM	0.321 µM	–	–	–	–	–	–	–	–	–	–	–	–	–	–	–	–	–
RASHFRKLF	–	≥ 20 µM	≥ 20 µM	≥ 20 µM	≥ 20 µM	0.165 µM	≥ 20 µM	≥ 20 µM	≥ 20 µM	≥ 20 µM	≥ 20 µM	≥ 20 µM	≥ 20 µM	≥ 20 µM	≥ 20 µM	≥ 20 µM	≥ 20 µM	0.019 µM
